From US20100011462A1, “FLAVIN MONOOXYGENASES AND TRANSCRIPTION FACTORS INVOLVED IN GLUCOSINOLATE BIOSYNTHESIS” (University of Copenhagen, priority 2006, published 2010)
Blank lines part the entries; values can stand above or below the molecule they belong to.

Tests used:
At1g65860 = biological target: T1, At1g65860 (Arabidopsis thaliana, UniProt Q9SS04); assay: Enzymatic activity of heterologously expressed At1g65860 in E. coli spheroplasts; type: biochemical; conditions: 1 hour at 30° C.; for oxygenation on the sulfur: tested as substrates at 0.1 mM, 1 mM and 10 mM
T1 construct: (AT1G65860) mRNA, complete cds; made in house; host or cells: E. coli TOP10, arabinose-induced pBAD-TOPO; crude spheroplast preparation, 50 ug total protein
T1 sequence (Q9SS04 1-459): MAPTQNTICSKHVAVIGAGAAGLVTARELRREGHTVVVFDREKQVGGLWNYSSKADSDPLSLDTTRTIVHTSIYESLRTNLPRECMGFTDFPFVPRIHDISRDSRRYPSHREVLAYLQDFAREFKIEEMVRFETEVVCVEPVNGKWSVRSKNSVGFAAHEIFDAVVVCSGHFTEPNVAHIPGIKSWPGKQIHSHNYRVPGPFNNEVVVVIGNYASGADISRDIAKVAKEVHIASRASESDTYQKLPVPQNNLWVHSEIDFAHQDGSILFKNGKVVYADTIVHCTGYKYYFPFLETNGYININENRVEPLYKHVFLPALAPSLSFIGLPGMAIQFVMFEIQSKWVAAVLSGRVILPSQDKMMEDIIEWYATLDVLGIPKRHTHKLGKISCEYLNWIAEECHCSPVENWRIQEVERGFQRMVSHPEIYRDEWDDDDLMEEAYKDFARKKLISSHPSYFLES
Description: FIG. 3—Enzymatic activity of heterologously expressed At1g65860 in E. coli spheroplasts using the arabinose inducible pBad TOPO® TA Expression system (Invitrogen). 50 μg total E. coli protein were used for each assay and allowed to proceed for 1 hour at 30° C. 4-methylsulfinylbutyl glucosinolate and desulfo-methylsulfinylbutyl glucosinolate production were quantified by HPLC (monitored at 229 nm). Compound identities were confirmed by comparison of both retention times, UV light absorption profiles and mass by LC/MS with those of authentic standards.
At1g65860 pBAD-TOPO constructs and a vector control (empty pBAD-TOPO) were transformed into the E. coli strain TOP10 (Invitrogen). Single colonies were grown overnight in Luria broth (LB) with 100 μg/ml ampicillin. One milliliter of the overnight culture was used to inoculate 100 ml of LB medium supplemented with 100 μg/ml ampicillin and the culture was grown at 37° C., 250 rpm to OD600=0.5, at which time arabinose (final conc. 0.02%) was added. The culture was grown at 28° C., 250 rpm for 16 h.
Following arabinose induction, spheroplasts of E. coli cells were prepared. The culture was chilled on ice, pelleted at 2500 g for 10 min, followed by resuspension by sequential addition of 8.3 ml 200 mM Tris/HCl, pH 7.6, 1.42 g sucrose, 16.7 μL […], 41.7 μL 0.1M phenylmethylsulfonyl fluoride, 33.3 μL lysozyme (50 mg/ml) and finally 8.31 mL ice-cold water with slow stirring. After 30 min incubation at 4° C. with slow stirring, 166 μL 1M Mg(OAc)2 was added and membranes were pelleted at 3000 g for 10 min at 4° C. Pellet was resuspended in 1800 μL 10 mM Tris/HCl pH 7.6/14 mM Mg(OAc)2/60 mM KOAc. The suspension was homogenized in a Potter-Elvehjem followed by the addition of 5 μL RNAse (10 mg/ml) and 5 μL DNAse (5 mg/ml) and slowly stirred for 30 min at 4° C. 235 μL 87% glycerol was added and the spheroplasts were stored at −80° C. for several weeks without loss of activity.
The 100 ul assay solution contained substrate and spheroplasts corresponding to 50 ug total E. coli protein in a 0.1 M Tricine at pH 7.9, 0.25 mM NADPH buffer. The reaction was allowed to proceed for 1 hour at 30° C. and terminated by the addition of 100 μL methanol and centrifuged at 5000 g for 2 min. The supernatant was moved to new tubes followed by lyophilization to dryness and finally redissolved in 50 μL water.
4-methylthiobutyl glucosinolate and desulfo 4-methylthiobutyl glucosinolate were used as substrates with final concentrations in the assay as given in FIG. 3. 4-methylthiobutyl oxime, dihomomethionine, methionine were tested as substrates at 0.1 mM, 1 mM and 10 mM final concentrations. […]

[1] = Activity of FMOs of the invention in E. coli or in seeds using a variety of substrates; type: biochemical, Arabidopsis thaliana; conditions: for S-oxygenation activity: desulfo and intact glucosinolates; for substrate specificity: methylthio glucosinolates in Arabidopsis
Excerpt: FIG. 11—Heterologous expression of At1g62560 in E. coli using 4MTB as substrate, with an empty vector as control.
FIG. 13—Heterologous expression of At1g62540 in E. coli using 4MTB as substrate, with an empty vector as control.
FIG. 15—Heterologous expression of At1g12140 in E. coli using desulfo-glucosinolates from glucosinolates from Arabidopsis Col-0 seeds as substrate mix.
FIG. 17—Heterologous expression of At1g62570 in E. coli using desulfo-glucosinolates from glucosinolates from Arabidopsis Col-0 seeds as substrate mix, with an empty vector as control.
FIGS. 11-18 show the activity of At1g62560, At1g65860, At1g62540, At1g12140 and At1g62570 in E. coli or in seeds using a variety of substrates.

Molecule: CSCCCC/C=N\O [4-methylthiobutyl oxime]
oxygenation on the sulfur (At1g65860): No oxygenation on the sulfur

Molecule: CSCCCC/C(=N/OS(=O)(=O)O)S[C@@H]1O[C@H](CO)[C@@H](O)[C@H](O)[C@H]1O [4MTB, 4-methylthiobutyl glucosinolate]
production of 4MSB from 4MTB (At1g65860; 50 μg total E. coli protein, HPLC 229 nm): production of 4MSB from 4MTB

B1: At1g62540: flavin-containing monooxygenase (FMO) from A. thaliana, SEQ ID NO 8 (protein, listed as Arabidopsis thaliana)
chain: MAPAQNPISSQHVVVIGAGAAGLVAARELSREGHTVVVLEREKEVGGLWIYSPKAESDPLSLDPTRSIVHSSVYESLRTNLPRECMGFTDFPFVPRFDDESRDSRRYPSHMEVLAYLQDFAREFNLEEMVRFEIEVVRVEPVNGKWRVWSKTSGGVSHDEIFDAVVVCSGHYTEPNVAHIPGIKSWPGKQIHSHNYRVPGPFENEVVVVIGNFASGADISRDIAKVAKEVHIASRASEFDTYEKLPVPRNNLWIHSEIDTAYEDGSIVFKNGKVVYADSIVYCTGYKYRFTFLETNGYMNIDENRVEHLYKHVFPPALSPGLSFVGLPSMGIQFVMFEIQSKWVAAVLSRRVTLPTEDKMMEDISAWYASLDAVGIPKRYTHKLGKIQSEYLNWVAEECGCPLVEHWRNQQIVRGYQRLVSHPETYRDEWDDNDLMEEAYEDFARKKLISFHPSHIL
S-oxygenation activity [1]: S-oxygenation activity | substrate specificity [1]: broad specificity towards all methylthio (MT) glucosinolates

B2: At1g62570: flavin-containing monooxygenase (FMO) from A. thaliana, SEQ ID NO 6 (protein, listed as Arabidopsis thaliana)
chain: MAPAPSPINSQHVAVIGAGAAGLVAARELRREGHTVVVLDREKQVGGLWVYTPETESDELGLDPTRPIVHSSVYKSLRTNLPRECMGYKDFPFVPRGDDPSRDSRRYPSHREVLAYLQDFATEFNIEEMIRFETEVLRVEPVNGKWRVQSKTGGGFSNDEIYDAVVMCCGHFAEPNIAQIPGIESWPGRQTHSHSYRVPDPFKDEVVVVIGNFASGADISRDISKVAKEVHIASRASKSNTFEKRPVPNNNLWMHSEIDTAHEDGTIVFKNGKVVHADTIVHCTGYKYYFPFLETNNYMRVDDNRVEPLYKHIFPPALAPGLSFIGLPAMGLQFYMFEVQSKWVAAVLSGRVTLPSVDEMMDDLKLSYETQEALGIPKRYTHKLGKSQCEYLDWIADLCGFPHVEHWRDQEVTRGYQRLGNQPETFRDEWDDDDLMEEAYEDFARLNLINFHPSRFLESGR
S-oxygenation activity [1]: S-oxygenation activity | substrate specificity [1]: broad specificity towards all methylthio (MT) glucosinolates

B3: At1g12140: flavin-containing monooxygenase (FMO) from A. thaliana, SEQ ID NO 10 (protein, listed as Arabidopsis thaliana)
chain: MAPARTRVNSLNVAVIGAGAAGLVAARELRRENHTVVVFERDSKVGGLWVYTPNSEPDPLSLDPNRTIVHSSVYDSLRTNLPRECMGYRDFPFVPRPEDDESRDSRRYPSHREVLAYLEDFAREFKLVEMVRFKTEVVLVEPEDKKWRVQSKNSDGISKDEIFDAVVVCNGHYTEPRVAHVPGIDSWPGKQIHSHNYRVPDQFKDQVVVVIGNFASGADISRDITGVAKEVHIASRSNPSKTYSKLPGSNNLWLHSMIESVHEDGTIVFQNGKVVQADTIVHCTGYKYHFPFLNTNGYITVEDNCVGPLYEHVFPPALAPGLSFIGLPWMTLQFFMFELQSKWVAAALSGRVTLPSEEKMMEDVTAYYAKREAFGQPKRYTHRLGGGQVDYLNWIAEQIGAPPGEQWRYQEINGGYYRLATQSDTFRDKWDDDHLIVEAYEDFLRQKLISSLPSQLLES
S-oxygenation activity [1]: S-oxygenation activity | substrate specificity [1]: mainly converts long-chain (especially octyl)methylthioalkyl-into methylsulfinyl glucosinolates

Second part, the molecule after the results:

oxygenation on the sulfur (At1g65860): No oxygenation on the sulfur
Molecule: CSCC[C@H](N)C(=O)O [methionine]

oxygenation on the sulfur (At1g65860): No oxygenation on the sulfur
Molecule: CSCCCCC(N)C(=O)O (stereo not shown) [dihomomethionine]
